Assay results taken from publication PMC9482650, “Quantitative fragmentomics allow affinity mapping of interactomes” (Nature Communications, 2022).

T1: PDZRN3_1, Q9UPQ7
T1 sequence (Q9UPQ7 244-349, limits assumed, looked up): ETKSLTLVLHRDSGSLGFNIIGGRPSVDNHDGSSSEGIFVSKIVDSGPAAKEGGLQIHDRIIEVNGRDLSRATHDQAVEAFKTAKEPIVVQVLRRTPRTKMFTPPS

T2: LIN7A, O14910
T2 sequence (O14910 103-200, limits assumed, looked up): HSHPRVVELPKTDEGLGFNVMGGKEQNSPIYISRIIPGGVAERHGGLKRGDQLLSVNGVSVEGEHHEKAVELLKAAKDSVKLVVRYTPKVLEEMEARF

T3: RHPN1, Q8TCX5
T3 sequence (Q8TCX5 508-602, limits assumed, looked up): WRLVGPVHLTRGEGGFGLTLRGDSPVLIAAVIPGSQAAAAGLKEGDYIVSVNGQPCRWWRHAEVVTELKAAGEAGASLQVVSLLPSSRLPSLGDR

T4: GRIP1_5, Q9Y3R0
T4 sequence (Q9Y3R0 568-668, limits assumed, looked up): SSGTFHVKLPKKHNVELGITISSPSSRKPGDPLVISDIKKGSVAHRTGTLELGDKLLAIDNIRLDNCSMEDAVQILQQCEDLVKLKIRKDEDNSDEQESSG

T5: GRIP1_3, Q9Y3R0
T5 sequence (Q9Y3R0 247-346, limits assumed, looked up): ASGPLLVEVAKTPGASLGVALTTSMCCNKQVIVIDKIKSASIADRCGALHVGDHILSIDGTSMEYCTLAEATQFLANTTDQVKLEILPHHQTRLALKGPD

T6: RAPGEF6, Q8TEU7
T6 sequence (Q8TEU7 525-625, limits assumed, looked up): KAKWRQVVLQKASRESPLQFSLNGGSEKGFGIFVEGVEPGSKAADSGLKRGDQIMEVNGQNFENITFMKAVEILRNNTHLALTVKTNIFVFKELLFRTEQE

T7: GRIP1_2, Q9Y3R0
T7 sequence (Q9Y3R0 145-248, limits assumed, looked up): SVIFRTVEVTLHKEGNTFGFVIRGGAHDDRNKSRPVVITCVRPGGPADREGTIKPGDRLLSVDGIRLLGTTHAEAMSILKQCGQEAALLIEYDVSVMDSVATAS

T8: FRMPD1, Q5SYB0
T8 sequence (Q5SYB0 52-145, limits assumed, looked up): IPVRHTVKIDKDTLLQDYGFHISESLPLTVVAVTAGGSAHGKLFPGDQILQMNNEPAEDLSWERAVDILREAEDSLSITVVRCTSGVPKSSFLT

T9: RADIL, Q96JH8
T9 sequence (Q96JH8 971-1071, limits assumed, looked up): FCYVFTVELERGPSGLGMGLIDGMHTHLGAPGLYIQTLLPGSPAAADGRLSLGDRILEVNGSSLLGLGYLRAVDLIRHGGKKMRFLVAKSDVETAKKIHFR

T10: TJP3_3, O95049
T10 sequence (O95049 375-456, limits assumed, looked up): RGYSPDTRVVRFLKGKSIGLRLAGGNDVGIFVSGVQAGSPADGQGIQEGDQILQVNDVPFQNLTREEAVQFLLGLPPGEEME


What was measured:
Test in all cases: holdup assay
Design in all cases: key: below the threshold = too weak to quantify, mostly under pKd 3.1 to 4
Details in all cases: plain residues with an end cap or a label only (N-terminal biotin on a linker: ado-ado)
PDZRN3_1, Q9UPQ7 = target: T1, PDZRN3_1, Q9UPQ7
LIN7A, O14910 = target: T2, LIN7A, O14910
GORASP2, Q9H8Y8 = target: GORASP2, Q9H8Y8
DLG4_3, P78352 = target: DLG4_3, P78352
RHPN1, Q8TCX5 = target: T3, RHPN1, Q8TCX5
GRIP1_5, Q9Y3R0 = target: T4, GRIP1_5, Q9Y3R0
GRIP1_3, Q9Y3R0 = target: T5, GRIP1_3, Q9Y3R0
DLG5_1, Q8TDM6 = target: DLG5_1, Q8TDM6
NHERF4_2, Q86UT5 = target: NHERF4_2, Q86UT5
HTRA1, Q92743 = target: HTRA1, Q92743
TJP2_1, Q9UDY2 = target: TJP2_1, Q9UDY2
MAGI1_1, Q96QZ7 = target: MAGI1_1, Q96QZ7
SCRIB_1, Q14160 = target: SCRIB_1, Q14160
Inadl_10, Q8NI35 = target: Inadl_10, Q8NI35
PDZRN4_1, Q6ZMN7 = target: PDZRN4_1, Q6ZMN7
RAPGEF6, Q8TEU7 = target: T6, RAPGEF6, Q8TEU7
GRIP1_2, Q9Y3R0 = target: T7, GRIP1_2, Q9Y3R0
LNX1_1, Q8TBB1 = target: LNX1_1, Q8TBB1
LNX1_3, Q8TBB1 = target: LNX1_3, Q8TBB1
PDLIM1, O00151 = target: PDLIM1, O00151
MAST2, Q6P0Q8 = target: MAST2, Q6P0Q8
FRMPD1, Q5SYB0 = target: T8, FRMPD1, Q5SYB0
NHERF4_4, Q86UT5 = target: NHERF4_4, Q86UT5
RADIL, Q96JH8 = target: T9, RADIL, Q96JH8
TJP3_3, O95049 = target: T10, TJP3_3, O95049
DLG1_1, Q12959 = target: DLG1_1, Q12959
GOPC, Q9HD26 = target: GOPC, Q9HD26
GORASP1, Q9BQQ3 = target: GORASP1, Q9BQQ3
Chain of GORASP1, Q9BQQ3 (Q9BQQ3 1-208): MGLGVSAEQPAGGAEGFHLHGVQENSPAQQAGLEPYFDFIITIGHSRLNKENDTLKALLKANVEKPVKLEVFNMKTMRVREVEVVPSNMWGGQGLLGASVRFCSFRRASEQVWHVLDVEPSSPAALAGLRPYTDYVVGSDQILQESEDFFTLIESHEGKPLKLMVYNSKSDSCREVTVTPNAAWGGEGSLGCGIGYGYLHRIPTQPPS

Chain of DLG5_1, Q8TDM6 (Q8TDM6 617-713): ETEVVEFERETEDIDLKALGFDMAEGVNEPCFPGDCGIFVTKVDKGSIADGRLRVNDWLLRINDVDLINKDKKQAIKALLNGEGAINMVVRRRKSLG
Chain of LNX1_3, Q8TBB1 (Q8TBB1 500-596): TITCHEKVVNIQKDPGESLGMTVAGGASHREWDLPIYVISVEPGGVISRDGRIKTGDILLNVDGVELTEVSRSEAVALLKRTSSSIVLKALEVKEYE
Chain of HTRA1, Q92743 (Q92743 360-477): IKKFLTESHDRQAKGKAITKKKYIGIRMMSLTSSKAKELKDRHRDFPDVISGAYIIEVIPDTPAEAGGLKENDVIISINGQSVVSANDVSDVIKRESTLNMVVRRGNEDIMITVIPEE
Chain of NHERF4_2, Q86UT5 (Q86UT5 220-308): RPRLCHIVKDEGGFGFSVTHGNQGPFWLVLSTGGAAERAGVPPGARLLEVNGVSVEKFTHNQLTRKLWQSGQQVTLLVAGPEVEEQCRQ
Chain of DLG4_3, P78352 (P78352 306-403): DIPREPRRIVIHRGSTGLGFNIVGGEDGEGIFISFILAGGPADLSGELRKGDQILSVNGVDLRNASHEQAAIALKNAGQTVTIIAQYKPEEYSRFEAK
Chain of MAGI1_1, Q96QZ7 (Q96QZ7 1-106): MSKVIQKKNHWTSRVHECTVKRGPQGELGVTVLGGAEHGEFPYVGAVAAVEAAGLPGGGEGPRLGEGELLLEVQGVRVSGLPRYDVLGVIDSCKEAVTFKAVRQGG
Chain of Inadl_10, Q8NI35 (Q8NI35 1673-1763): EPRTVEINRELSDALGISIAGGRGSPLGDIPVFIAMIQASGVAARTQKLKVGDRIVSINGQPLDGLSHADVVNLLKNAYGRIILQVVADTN
Chain of MAST2, Q6P0Q8 (Q6P0Q8 1099-1202): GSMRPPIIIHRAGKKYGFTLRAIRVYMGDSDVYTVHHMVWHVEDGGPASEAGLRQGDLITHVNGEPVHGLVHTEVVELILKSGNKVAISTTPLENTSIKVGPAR
Chain of SCRIB_1, Q14160 (Q14160 718-814): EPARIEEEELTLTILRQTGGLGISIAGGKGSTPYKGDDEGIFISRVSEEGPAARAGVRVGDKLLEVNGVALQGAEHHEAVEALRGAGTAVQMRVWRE
Chain of LNX1_1, Q8TBB1 (Q8TBB1 261-371): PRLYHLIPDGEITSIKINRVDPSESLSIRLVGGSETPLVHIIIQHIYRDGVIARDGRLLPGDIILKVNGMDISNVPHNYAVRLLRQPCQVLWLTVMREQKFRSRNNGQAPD
Chain of PDLIM1, O00151 (O00151 1-87): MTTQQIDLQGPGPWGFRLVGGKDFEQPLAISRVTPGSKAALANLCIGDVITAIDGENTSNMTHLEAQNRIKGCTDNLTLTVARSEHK
Chain of PDZRN4_1, Q6ZMN7 (Q6ZMN7 213-318): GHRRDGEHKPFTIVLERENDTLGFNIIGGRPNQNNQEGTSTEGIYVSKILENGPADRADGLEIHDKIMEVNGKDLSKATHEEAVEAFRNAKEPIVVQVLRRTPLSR
Chain of TJP2_1, Q9UDY2 (Q9UDY2 24-128): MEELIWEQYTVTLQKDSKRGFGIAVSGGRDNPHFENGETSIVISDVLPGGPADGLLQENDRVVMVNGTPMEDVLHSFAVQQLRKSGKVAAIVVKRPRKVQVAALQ
Chain of NHERF4_4, Q86UT5 (Q86UT5 464-550): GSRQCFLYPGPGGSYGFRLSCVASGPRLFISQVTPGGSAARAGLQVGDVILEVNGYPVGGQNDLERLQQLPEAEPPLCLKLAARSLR

Binder	pKd (PDZRN3_1, Q9UPQ7)	pKd (LIN7A, O14910)	pKd (GORASP2, Q9H8Y8)	pKd (DLG4_3, P78352)	pKd (RHPN1, Q8TCX5)	pKd (GRIP1_5, Q9Y3R0)	pKd (GRIP1_3, Q9Y3R0)	pKd (DLG5_1, Q8TDM6)	pKd (NHERF4_2, Q86UT5)	pKd (HTRA1, Q92743)	pKd (TJP2_1, Q9UDY2)	pKd (MAGI1_1, Q96QZ7)	pKd (SCRIB_1, Q14160)	pKd (Inadl_10, Q8NI35)	pKd (PDZRN4_1, Q6ZMN7)	pKd (RAPGEF6, Q8TEU7)	pKd (GRIP1_2, Q9Y3R0)	pKd (LNX1_1, Q8TBB1)	pKd (LNX1_3, Q8TBB1)	pKd (PDLIM1, O00151)	other results
LPPPESESKV [KCNJ9, Q92806]	below the threshold	below the threshold	below the threshold	below the threshold	4.44	below the threshold	below the threshold	below the threshold	below the threshold	below the threshold	below the threshold	below the threshold	below the threshold	below the threshold	below the threshold	below the threshold	below the threshold	below the threshold	below the threshold	below the threshold	pKd (MAST2, Q6P0Q8): 4.9; pKd (FRMPD1, Q5SYB0): below the threshold; pKd (NHERF4_4, Q86UT5): below the threshold; pKd (RADIL, Q96JH8): below the threshold; pKd (TJP3_3, O95049): below the threshold; pKd (DLG1_1, Q12959): below the threshold; pKd (GOPC, Q9HD26): below the threshold; pKd (GORASP1, Q9BQQ3): below the threshold
NNMAFETTHF [SLC5A12, Q1EHB4]	below the threshold	3.74	below the threshold	below the threshold	4.08	below the threshold	below the threshold	below the threshold	below the threshold	3.62	below the threshold	below the threshold	4.14	below the threshold	below the threshold	below the threshold	below the threshold	below the threshold	below the threshold	below the threshold	pKd (MAST2, Q6P0Q8): 5.56; pKd (FRMPD1, Q5SYB0): below the threshold; pKd (NHERF4_4, Q86UT5): below the threshold; pKd (RADIL, Q96JH8): below the threshold; pKd (TJP3_3, O95049): below the threshold; pKd (DLG1_1, Q12959): below the threshold; pKd (GOPC, Q9HD26): below the threshold; pKd (GORASP1, Q9BQQ3): below the threshold
